Target: Cdc42, endogenous in human mammary epithelial cells (human (endogenous in MCF10A and HMEC)) (UniProt P60953)
Test: pull-down

Chain of UniProt P60953 (P60953 whole entry): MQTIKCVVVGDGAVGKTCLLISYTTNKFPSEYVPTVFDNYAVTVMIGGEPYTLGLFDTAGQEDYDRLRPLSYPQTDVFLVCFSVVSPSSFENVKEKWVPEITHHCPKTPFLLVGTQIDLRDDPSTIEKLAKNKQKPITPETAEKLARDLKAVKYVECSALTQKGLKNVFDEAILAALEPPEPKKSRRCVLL

In the case of “TβRIII-T841A (β-arrestin2 binding deficient) (from UniProt Q03167 21-851) (receptor)”, the percent decrease of the pull-down relative to TβRIII is reported as 70%.

For “TβRIIIΔCyto (TβRIII lacking cytoplasmic domain) (domain or fragment)”, the percent decrease of the pull-down relative to TβRIII was 60%.
